Measurements reported in US20230060388A1.

How the values were obtained:
[1] = molecular target: recombinant human TIGIT extracellular domain (ECD) (human) (UniProt Q495A1); assay: ELISA on recombinant human TIGIT ECD
[2] = molecular target: human TIGIT expressed on cells (stably transfected Jurkat cells) (human) (UniProt Q495A1); assay: whole cell binding, flow cytometry, n=3 (FIG. 10A)
[3] = molecular target: recombinant cynomolgus TIGIT (cynomolgus monkey); assay: ELISA on recombinant cyno-TIGIT
[4] = molecular target: human TIGIT expressed on cells (stably transfected Jurkat cells) (human) (UniProt Q495A1); assay: cell-based or functional assay
[5] = molecular target: human TIGIT expressed on cells (stably transfected Jurkat cells) (human) (UniProt Q495A1); assay: flow cytometry on h-TIGIT transfected Jurkat cells (whole cell binding), Alexa Fluor 488; representative of three experiments
[6] = molecular target: recombinant mouse TIGIT (mouse) (UniProt P86176); assay: ELISA on recombinant mouse-TIGIT
recombinant mouse TIGIT (mouse), sequence (P86176 29-148 limits assumed): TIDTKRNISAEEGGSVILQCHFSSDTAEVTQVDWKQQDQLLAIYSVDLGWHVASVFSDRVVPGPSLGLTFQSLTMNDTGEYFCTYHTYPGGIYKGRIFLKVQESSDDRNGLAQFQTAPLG

human TIGIT expressed on cells (stably transfected Jurkat cells) (human), sequence (Q495A1 22-244 limits assumed): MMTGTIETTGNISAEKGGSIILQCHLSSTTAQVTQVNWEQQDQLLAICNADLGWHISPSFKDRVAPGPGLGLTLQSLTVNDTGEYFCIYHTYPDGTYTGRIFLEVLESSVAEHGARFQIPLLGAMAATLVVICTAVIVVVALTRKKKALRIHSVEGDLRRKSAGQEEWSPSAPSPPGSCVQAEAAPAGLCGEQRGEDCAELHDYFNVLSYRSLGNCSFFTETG
recombinant human TIGIT extracellular domain (ECD) (human), sequence (Q495A1 22-138 limits assumed): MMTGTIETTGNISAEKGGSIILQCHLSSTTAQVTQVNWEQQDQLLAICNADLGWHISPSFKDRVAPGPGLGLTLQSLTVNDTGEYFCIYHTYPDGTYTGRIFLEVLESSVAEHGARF

Substance | EC50 (read off the curve) [1] | EC50 [2] | EC50 (read off the curve) [3] | EC50, NFAT luciferase reporter assay (n=3) [4] | EC50 (read off the curve) [5] | EC50 (read off the curve) [6]
Reference Ab 2 (same amino acid sequences as Tiragolumab) (antibody) | 0.1 mg/L | 0.61 nM | 0.1 mg/L | 0.72 nM | 0.5 nM | 
anti-mouse TIGIT reference antibody (Biolegend #142101) |  |  |  |  |  | 0.08 mg/L
